Assay: label from the status in PepcDB records
For “MFNKKKTIASLIVLSSLASQIALTPISALADTHDTNNIALLQNTNENVPYKYTSTLTFPTLTNQTQEDYKLEIKLALPSGMNYTDLQVSVGGEDITNQVGTTSFDNSTNTVTFKFDKVTSWDSLSKAKVKFDWKTSYSGEGGEAKIDSLVATATATSEDKAGNKSTSTGSLKPKDISAPVVKAEETEITYSPGSDVTEEQFLTDIHASVTDNYDSTISLTSNFTSAVNLAVSGDYSVNVQATDKAGNVSNTLNVTVHVSTPAPVAGANITVNHLDSNGNKIAESDTLTGVVNSNYQSESKKITGYTLETTPTNATGTFTDTPQTVDYIYKKDTVTPTPITVNPVEPVKPVNPVVNKPVTVKPANDNTNPSTSNSVEKTTYSSLPTTGDTDQSKSSTIFGALLLLISAPLLLFKKK”, the protein production was “failed”.
With “MFNKKPLADTTARRPSTGAQAKIYSRDNVARYSERARQRRRSHTIRHVALIVVLGVLLSATTAAGLWFATIMGKLGDSNVITDNLRRVLVDTDEAKDPFYVLLLGTDGRPGEDTYRADSIILARIDPTQKQATLISVPRDTKVEYKGETMKINACHTVGGAEAMVEAVNELCGVQISHYAEVSFDGMQALIDSVGGIDINATDDVDDPEHLDIKITAGQQHMDGATALTYARCRYTYADGDYTRMRHQRQVLGALANQILNNFDATKIFGLVNSLSDMLVTDMSVQDIVATVNAMRGMDVDGIYSANLPSYADDSTMIDGVSYVFVYEDELKEMMERVDAGKDPKGPNTMGLSDGSSSTIGDLNNNTSDDYANGTATSSVSSDDSDDSSDSSDSDYYEEPTGDGNGYEANY” the protein production was “failed”.
In the case of “MFNKVAFMNIPMMDLIMIVIAIIITIGSFLFIAYLIFKYSKIKKQVKIIREVKINLPKMLKSNMIKNSFLIISLLCFYFGMLYIAGELVISHILFIAICWIVVFLYIIIKGETRGYICEEGLLVSGVLYSWKEFKDVKIEDNYIILTTPIHKIVIKKEKGVENILKNYLKRN”, the protein production is reported as “failed”.
In the case of “MFNKVIMVGRLTRNVELKYLPSGSAAATIGLATSRRFKKQDGTLGEEVCFIDARLFGRTAEIANQYLSKGSSVLIEGRLTYESWMDQTGKKNSRHTITADSLQFMDKKSDNPQANAMQDSIMHENSNNAYPANHNAPSQDPFNQAYAQNAYAKENLQAQPSKYQNSVPEINIDEEEIPF”, the protein production is reported as “failed”.
For “MFNRRIALICLIVATLSACGGKTKEELYAEAVKELDKGNANGAIVLLKNAVEKDQNYFDARYKLAKAYMTVGKFEQAEKEFQKALRQNPSNPEIRLDLAKLYNSINKPDESIAEAKAYLSARAGSADALEVIGTSYGQKKMFDEAEKYLKESLQAEPARASAMLQLAKVYLATKREQEGMGLLNEIVRKDPKNTKAYYLAAFYEGYRGNSEKALEYYQKIMQADPDDANAAFRIGMMHISKGEVDKAERLADDLIRKASKRPEGHQLKGIALYTRKNYDQAITELQGVVKNYQNPGAYYYLGLSYYQRNDLESALSQFRKVIDLNPKHLQARLMSATVLLQQKRTDDAITEAKRVIELDDKNAFAHNVLGSAYIAKGMTDEAVRELNRAIELEPKLVGAHMKKGIVNLARGKRAEGEEELETAVKVAPDVLNSRYLLASYYMRLNKQARAIEVLRAGLRGGKQDAPLYNTMAAAAFADKREKDGILYLQKAREVDQAYLPASFNLASYYISKKDNGRAAGLFNEILKRDPANLKALIGLGAISESEGKAQEAVAYYTKAKATKDPVGYLSLASYYIRKKEAPKALALANEGLKGAPNNAALLELKGGLLAADKKYAEALKVYDELEKVAPTRAIPLKIGALVVTKNIPKAVEQAQKVVAANPKSAAGHLVIASIYESQKDYDRAISAVRSGIAVEPGNLRASMALGGIYEKKRDFARAIAAYDDILRKNPKNIPALFAKGAAFDQSGKKKEAAGIYRAVLKIAPDFVPALNNLAYLAAEGYGNKSEALSLASRANKLQPNNAGVMDTYGYALLINGKRTASVRVLEKAVSLLPNNPAVHYHLAMAYRDMGDRAKASVSVQKSLQYGEFPESAAARKLLAELKR”, the protein production was “failed”.
For “MFPYKIVDDVVILMPNKELNIENAHLFKKWVFDEFLNKGYNKIFLVLSDVESIDSFSLGVIVNILKSISSSGGFFALVSPNEKVERVLSLTNLDRIVKIYDTISEAMEEVRRK”, the protein production was “not failed”.

— a protein production outcome set (Wang et al. 2014)
